Measured values published in US20100150879A1 (published 2010).
One block for each binder: values may come before it. No end group written: not given here.

Key:
[1] = target: T1, VE-cadherin, endogenous in hdMVEC (human, UniProt P33151 48-784); test: co-immunoprecipitation from confluent EC extracts
T1 construct: Endogenous protein from confluent EC extracts
T1 sequence (looked up): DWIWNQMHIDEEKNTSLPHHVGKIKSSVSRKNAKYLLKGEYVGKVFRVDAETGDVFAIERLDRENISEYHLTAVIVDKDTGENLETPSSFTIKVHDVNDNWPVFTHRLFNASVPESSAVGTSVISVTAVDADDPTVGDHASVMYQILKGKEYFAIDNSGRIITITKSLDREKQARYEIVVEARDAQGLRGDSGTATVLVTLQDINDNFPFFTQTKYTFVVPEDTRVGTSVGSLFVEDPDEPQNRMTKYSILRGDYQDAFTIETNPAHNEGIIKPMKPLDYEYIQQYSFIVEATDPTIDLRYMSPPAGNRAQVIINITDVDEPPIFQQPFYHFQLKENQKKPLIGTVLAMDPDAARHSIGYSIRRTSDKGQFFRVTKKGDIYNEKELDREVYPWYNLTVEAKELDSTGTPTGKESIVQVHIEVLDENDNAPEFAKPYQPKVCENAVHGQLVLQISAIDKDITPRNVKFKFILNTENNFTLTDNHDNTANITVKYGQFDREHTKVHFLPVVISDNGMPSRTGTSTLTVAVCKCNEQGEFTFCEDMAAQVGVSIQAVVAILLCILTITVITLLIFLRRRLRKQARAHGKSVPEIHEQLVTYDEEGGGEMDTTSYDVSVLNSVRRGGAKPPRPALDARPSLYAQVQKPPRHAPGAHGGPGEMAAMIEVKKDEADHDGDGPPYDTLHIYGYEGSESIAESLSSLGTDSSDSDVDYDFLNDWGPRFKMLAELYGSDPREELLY
Protocol: Biochemical Experiments. For immunoprecipitation experiments, cells were rinsed with cold phosphate buffered saline (PBS), pH 7.4 and solubilized with complete cell lysis buffer (50 mM HEPES, pH 7.5; 150 mM NaCl; 1% TRITON X-100; 1 mM calcium chloride; 1 mM magnesium chloride; 1 mM sodium orthovanadate; 25 mM sodium fluoride; 1 mM sodium pyrosphosphate; 1 mM phenylmethylsulfonyl fluoride (PMSF); 10 μg/ml aprotinin; 10 μg/ml leupeptin; 1 μg/ml pepstatin-A) or with modified RIPA buffer (20 mM Tris, pH 7.5; 0.1% SDS; 0.25% sodium deoxycholate; 1% TRITON X-100; 150 mM sodium chloride; 1 mM sodium pyrosphosphate; 25 mM sodium fluoride; 1 mM sodium orthovanadate; 5 mM magnesium chloride; 1 mM calcium chloride; 1 μg/ml pepstatin; 1 mM phenylmethylsulfonyl fluoride; 1 μg/ml leupeptin) at 4° C. for 30 minutes. Cell extracts were centrifuged at ˜21,000×g for 30 minutes at 4° C., pre-adsorbed, and immunoprecipitated using specific antibodies. Immune complexes were washed 4-5 times with lysis buffer or with cold immunoprecipitation wash buffer (50 mM HEPES, pH 7.5; 150 mM NaCl; 0.5% NP-40; 1 mM calcium chloride; 1 mM magnesium chloride). SEPHAROSE-bound immune complexes were boiled in 1× Lammeli reducing sample buffer and resolved by SDS-PAGE. […]

[2] = target: T2, β-catenin, endogenous (human, UniProt P35222 2-781); test: immunoprecipitation and western blot, HEK293 cells expressing HA-LPP3
T2 construct: Endogenous protein from cell extracts; also called beta-catenin
T2 sequence (looked up): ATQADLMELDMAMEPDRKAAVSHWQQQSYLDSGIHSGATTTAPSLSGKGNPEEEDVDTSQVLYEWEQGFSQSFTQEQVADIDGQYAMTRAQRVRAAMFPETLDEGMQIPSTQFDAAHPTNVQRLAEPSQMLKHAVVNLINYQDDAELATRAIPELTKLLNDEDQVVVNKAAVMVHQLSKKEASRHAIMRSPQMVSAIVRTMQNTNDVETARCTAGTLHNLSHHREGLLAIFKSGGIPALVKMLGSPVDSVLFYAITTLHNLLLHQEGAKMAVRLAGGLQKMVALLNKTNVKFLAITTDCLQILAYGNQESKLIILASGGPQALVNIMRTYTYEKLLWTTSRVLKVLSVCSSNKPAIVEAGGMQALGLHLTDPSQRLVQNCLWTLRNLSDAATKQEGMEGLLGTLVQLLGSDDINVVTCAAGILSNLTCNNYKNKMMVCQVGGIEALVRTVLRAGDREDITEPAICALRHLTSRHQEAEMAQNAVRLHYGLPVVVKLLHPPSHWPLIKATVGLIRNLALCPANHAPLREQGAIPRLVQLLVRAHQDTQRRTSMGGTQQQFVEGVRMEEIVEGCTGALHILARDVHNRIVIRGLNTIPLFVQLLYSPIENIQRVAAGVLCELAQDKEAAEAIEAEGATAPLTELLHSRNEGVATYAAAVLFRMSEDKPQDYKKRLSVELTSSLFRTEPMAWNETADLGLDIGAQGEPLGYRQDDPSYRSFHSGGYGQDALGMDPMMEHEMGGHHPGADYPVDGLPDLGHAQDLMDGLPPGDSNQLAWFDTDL
Protocol: (§1) For immunoprecipitation experiments, cells were rinsed with cold phosphate buffered saline (PBS), pH 7.4 and solubilized with complete cell lysis buffer (50 mM HEPES, pH 7.5; 150 mM NaCl; 1% TRITON X-100; 1 mM calcium chloride; 1 mM magnesium chloride; 1 mM sodium orthovanadate; 25 mM sodium fluoride; 1 mM sodium pyrosphosphate; 1 mM phenylmethylsulfonyl fluoride (PMSF); 10 μg/ml aprotinin; 10 μg/ml leupeptin; 1 μg/ml pepstatin-A) or with modified RIPA buffer (20 mM Tris, pH 7.5; 0.1% SDS; 0.25% sodium deoxycholate; 1% TRITON X-100; 150 mM sodium chloride; 1 mM sodium pyrosphosphate; 25 mM sodium fluoride; 1 mM sodium orthovanadate; 5 mM magnesium chloride; 1 mM calcium chloride; 1 μg/ml pepstatin; 1 mM phenylmethylsulfonyl fluoride; 1 μg/ml leupeptin) at 4° C. for 30 minutes. Cell extracts were centrifuged at ˜21,000×g for 30 minutes at 4° C., pre-adsorbed, and immunoprecipitated using specific antibodies. Immune complexes were washed 4-5 times with lysis buffer or with cold immunoprecipitation wash buffer (50 mM HEPES, pH 7.5; 150 mM NaCl; 0.5% NP-40; 1 mM calcium chloride; 1 mM magnesium chloride). SEPHAROSE-bound immune complexes were boiled in 1× Lammeli reducing sample buffer and resolved by SDS-PAGE.

[3] = target: T3, γ-catenin (plakoglobin), endogenous (human, UniProt P14923 1-745); test: as above
T3 construct: Endogenous protein from cell extracts; also called gamma-catenin
T3 sequence (looked up): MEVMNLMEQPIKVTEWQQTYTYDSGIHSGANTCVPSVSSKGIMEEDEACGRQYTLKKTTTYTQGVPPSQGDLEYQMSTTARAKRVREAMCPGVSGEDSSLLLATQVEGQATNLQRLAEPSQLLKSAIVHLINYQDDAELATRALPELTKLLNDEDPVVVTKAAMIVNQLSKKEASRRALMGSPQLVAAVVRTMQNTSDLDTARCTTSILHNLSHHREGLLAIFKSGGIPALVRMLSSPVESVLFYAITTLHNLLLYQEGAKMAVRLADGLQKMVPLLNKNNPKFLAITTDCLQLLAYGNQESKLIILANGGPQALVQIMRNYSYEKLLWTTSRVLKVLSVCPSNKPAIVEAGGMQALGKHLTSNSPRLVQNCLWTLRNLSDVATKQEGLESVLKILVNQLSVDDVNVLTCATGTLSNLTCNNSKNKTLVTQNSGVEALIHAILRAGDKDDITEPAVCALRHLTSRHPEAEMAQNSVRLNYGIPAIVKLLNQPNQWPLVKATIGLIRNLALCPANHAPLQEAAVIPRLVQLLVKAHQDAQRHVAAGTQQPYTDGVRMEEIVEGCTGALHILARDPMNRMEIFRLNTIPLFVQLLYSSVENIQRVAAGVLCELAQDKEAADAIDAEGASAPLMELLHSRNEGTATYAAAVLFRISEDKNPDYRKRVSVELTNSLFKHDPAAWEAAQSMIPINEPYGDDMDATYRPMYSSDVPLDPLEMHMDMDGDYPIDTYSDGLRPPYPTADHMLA
Protocol: as §1

[4] = target: T2, β-catenin, endogenous; test: far western, GST-LPP3-C-cyto as bait on blotted immunoprecipitates from hdMVEC
[5] = target: T4, β1-integrin, endogenous in hdMVEC (human, UniProt P05556 21-798); test: as above
T4 construct: Immunoprecipitated from hdMVEC extracts and blotted for far western analysis; also called beta1-integrin
T4 sequence (P05556 21-798): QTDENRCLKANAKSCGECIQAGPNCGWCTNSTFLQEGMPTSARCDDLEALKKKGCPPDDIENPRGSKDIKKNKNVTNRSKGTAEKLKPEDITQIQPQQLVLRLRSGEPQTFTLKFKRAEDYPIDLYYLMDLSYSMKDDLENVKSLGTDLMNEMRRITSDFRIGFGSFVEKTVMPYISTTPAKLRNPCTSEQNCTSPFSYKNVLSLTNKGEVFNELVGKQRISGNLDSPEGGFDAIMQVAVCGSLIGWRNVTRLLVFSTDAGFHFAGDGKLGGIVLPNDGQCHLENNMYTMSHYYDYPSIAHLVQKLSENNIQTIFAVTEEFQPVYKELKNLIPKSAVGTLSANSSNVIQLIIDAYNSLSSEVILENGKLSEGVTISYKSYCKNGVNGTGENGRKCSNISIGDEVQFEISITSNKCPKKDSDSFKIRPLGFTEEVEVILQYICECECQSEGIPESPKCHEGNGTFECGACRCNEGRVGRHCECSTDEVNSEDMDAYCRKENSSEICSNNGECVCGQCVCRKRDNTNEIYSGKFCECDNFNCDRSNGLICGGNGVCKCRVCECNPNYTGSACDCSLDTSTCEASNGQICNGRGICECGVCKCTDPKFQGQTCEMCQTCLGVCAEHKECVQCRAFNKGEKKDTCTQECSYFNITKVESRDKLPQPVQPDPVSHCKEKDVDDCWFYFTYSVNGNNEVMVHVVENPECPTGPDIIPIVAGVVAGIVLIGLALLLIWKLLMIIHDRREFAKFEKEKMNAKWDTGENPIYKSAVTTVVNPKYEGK

[6] = target: T3, γ-catenin (plakoglobin), endogenous; test: as above
[7] = target: T1, VE-cadherin, endogenous in hdMVEC; test: as above
[8] = target: T2, β-catenin, endogenous; test: co-immunoprecipitation from sub-confluent ECs transfected with FLAG-tagged PTEN
Protocol: Cell extracts were centrifuged at ˜21,000×g for 30 minutes at 4° C., pre-adsorbed, and immunoprecipitated using specific antibodies. Immune complexes were washed 4-5 times with lysis buffer or with cold immunoprecipitation wash buffer (50 mM HEPES, pH 7.5; 150 mM NaCl; 0.5% NP-40; 1 mM calcium chloride; 1 mM magnesium chloride). SEPHAROSE-bound immune complexes were boiled in 1× Lammeli reducing sample buffer and resolved by SDS-PAGE.
It was initially determined whether PTEN binds to β-catenin in sub-confluent ECs.

[9] = target: T5, p120-catenin (p120ctn), endogenous (human, UniProt O60716 1-968, limits assumed); test: GST pull-down
T5 construct: Endogenous protein from cell extracts of human cells (hdMVEC, HEK293)
T5 sequence (looked up): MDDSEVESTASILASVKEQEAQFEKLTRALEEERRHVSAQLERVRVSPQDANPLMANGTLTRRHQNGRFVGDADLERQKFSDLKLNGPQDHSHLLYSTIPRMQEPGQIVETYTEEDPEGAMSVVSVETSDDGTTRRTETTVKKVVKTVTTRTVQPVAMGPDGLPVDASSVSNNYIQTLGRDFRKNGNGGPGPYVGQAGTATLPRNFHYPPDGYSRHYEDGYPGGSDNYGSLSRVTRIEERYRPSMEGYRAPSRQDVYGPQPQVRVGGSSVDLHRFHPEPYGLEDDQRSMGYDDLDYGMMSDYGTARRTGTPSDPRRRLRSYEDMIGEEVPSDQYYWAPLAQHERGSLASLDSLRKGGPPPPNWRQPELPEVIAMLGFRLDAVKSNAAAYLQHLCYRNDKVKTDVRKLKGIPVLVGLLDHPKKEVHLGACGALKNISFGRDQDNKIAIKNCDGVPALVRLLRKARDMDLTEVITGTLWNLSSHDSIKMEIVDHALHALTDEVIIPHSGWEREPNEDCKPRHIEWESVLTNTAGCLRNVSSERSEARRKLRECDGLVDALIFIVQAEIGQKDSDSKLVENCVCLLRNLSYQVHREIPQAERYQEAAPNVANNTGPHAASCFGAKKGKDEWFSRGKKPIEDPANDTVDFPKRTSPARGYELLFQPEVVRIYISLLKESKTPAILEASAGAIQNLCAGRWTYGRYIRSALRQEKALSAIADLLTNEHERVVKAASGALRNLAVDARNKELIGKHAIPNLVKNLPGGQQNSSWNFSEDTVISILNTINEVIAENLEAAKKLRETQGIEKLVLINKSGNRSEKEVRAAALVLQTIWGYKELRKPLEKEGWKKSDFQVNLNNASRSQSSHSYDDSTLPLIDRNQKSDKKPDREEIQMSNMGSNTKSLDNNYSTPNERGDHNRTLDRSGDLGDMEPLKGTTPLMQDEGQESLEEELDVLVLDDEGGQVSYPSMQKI
Protocol: Pull-down assays were also carried out with GST-LPP3 fusion proteins. […] In these experiments, each of the membranes was probed for the presence of the GST-fusion protein.

[10] = target: T2, β-catenin, endogenous; test: interaction assay in extracts of ECs transfected with LPP3 constructs (method not spelled out)

- binding result [4]: no binding (tested: 2.0 µg/ml)
- binding result [5]: no binding (tested: 2.0 µg/ml)
- binding result [6]: no binding (tested: 2.0 µg/ml)
- binding result [7]: no binding (tested: 2.0 µg/ml)
B3: GST-LPP3-C-cyto fusion protein (GST fused to the C-terminal cytoplasmic domain of LPP3) (other)
chain: SDLFKTKMTLSLPAPAIRKEILSPVDIIDRNNHHNMM
modifications: also: fused to glutathione-S-transferase (GST), linker not given here
notes: Expressed in E. coli; ran at 32 kDa; also called GST-C-cyto; GST-CC; not shown: glutathione-S-transferase (GST)

- binding result [8]: no binding
B4: FLAG-tagged wild-type PTEN (enzyme)
chain: not shown
notes: Gift construct, transfected into sub-confluent ECs; also called WT-PTEN; not shown: FLAG tag

- binding result [9]: no binding
B5: GST-N-cyto fusion protein (GST fused to the N-terminal cytoplasmic domain of LPP3) (other)
chain: QNYKYDKAIVPESKNGGSPALNNNPRRSGSK
notes: Expressed in E. coli; not shown: glutathione-S-transferase (GST)

Second part, the binder before the results:

B1: Lipid Phosphate Phosphatase-3 (LPP3), endogenous in human dermal microvascular endothelial cells (enzyme, UniProt O14495 1-311, looked up)
chain: MQNYKYDKAIVPESKNGGSPALNNNPRRSGSKRVLLICLDLFCLFMAGLPFLIIETSTIKPYHRGFYCNDESIKYPLKTGETINDAVLCAVGIVIAILAIITGEFYRIYYLKKSRSTIQNPYVAALYKQVGCFLFGCAISQSFTDIAKVSIGRLRPHFLSVCNPDFSQINCSEGYIQNYRCRGDDSKVQEARKSFFSGHASFSMYTMLYLVLYLQARFTWRGARLLRPLLQFTLIMMAFYTGLSRVSDHKHHPSDVLAGFAQGALVACCIVFFVSDLFKTKTTLSLPAPAIRKEILSPVDIIDRNNHHNMM
notes: Endogenous protein immunoprecipitated from hdMVEC lysates; also called phosphatidic acid phosphatase-2b; PAP2b
- binding result [1]: no binding

B2: HA-tagged human wild-type LPP3 (pLNCX2-HA-WT-hLPP3) (enzyme)
chain: YPYDVPDYAYPYDVPDYAYPYDVPDYAMQNYKYDKAIVPESKNGGSPALNNNPRRSGSKRVLLICLDLFCLFMAGLPFLIIETSTIKPYHRGFYCNDESIKYPLKTGETINDAVLCAVGIVIAILAIITGEFYRIYYLKKSRSTIQNPYVAALYKQVGCFLFGCAISQSFTDIAKVSIGRLRPHFLSVCNPDFSQINCSEGYIQNYRCRGDDSKVQEARKSFFSGHASFSMYTMLYLVLYLQARFTWRGARLLRPLLQFTLIMMAFYTGLSRVSDHKHHPSDVLAGFAQGALVACCIVFFVSDLFKTKTTLSLPAPAIRKEILSPVDIIDRNNHHNMM
notes: whole, on cells; Three copies of the HA tag are fused in-frame at the N-terminus; also called HA-LPP3
- binding result [2]: no binding
- binding result [3]: no binding

B6: Lymphoid Enhancer Binding Factor 1 (LEF-1), endogenous in hdMVEC (other, human, UniProt Q9UJU2 1-399, looked up)
chain: MPQLSGGGGGGGGDPELCATDEMIPFKDEGDPQKEKIFAEISHPEEEGDLADIKSSLVNESEIIPASNGHEVARQAQTSQEPYHDKAREHPDDGKHPDGGLYNKGPSYSSYSGYIMMPNMNNDPYMSNGSLSPPIPRTSNKVPVVQPSHAVHPLTPLITYSDEHFSPGSHPSHIPSDVNSKQGMSRHPPAPDIPTFYPLSPGGVGQITPPLGWQGQPVYPITGGFRQPYPSSLSVDTSMSRFSHHMIPGPPGPHTTGIPHPAIVTPQVKQEHPHTDSDLMHVKPQHEQRKEQEPKRPHIKKPLNAFMLYMKEMRANVVAECTLKESAAINQILGRRWHALSREEQAKYYELARKERQLHMQLYPGWSARDNYGKKKKRKREKLQESASGTGPRMTAAYI
notes: Endogenous protein from EC extracts
- binding result [10]: binds
